Here are results for three molecules from PMC2764441.

The target in data set [1] is T1, NF-κB p50 (recombinant human p50) (human), P19838.
T1 chain: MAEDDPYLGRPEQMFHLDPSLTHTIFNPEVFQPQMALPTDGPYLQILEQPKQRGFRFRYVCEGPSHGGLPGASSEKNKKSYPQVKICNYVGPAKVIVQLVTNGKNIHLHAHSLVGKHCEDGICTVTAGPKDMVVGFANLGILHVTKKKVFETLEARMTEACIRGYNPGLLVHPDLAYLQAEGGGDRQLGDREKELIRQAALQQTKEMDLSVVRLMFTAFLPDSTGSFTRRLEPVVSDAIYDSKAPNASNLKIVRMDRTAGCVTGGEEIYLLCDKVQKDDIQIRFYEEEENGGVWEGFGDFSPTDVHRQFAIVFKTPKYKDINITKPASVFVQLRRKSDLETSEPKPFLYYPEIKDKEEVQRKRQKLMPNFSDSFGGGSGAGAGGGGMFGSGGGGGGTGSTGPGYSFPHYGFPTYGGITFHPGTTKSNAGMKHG
The data set is described as follows: cross-linking. The settings on record: remark: other sources report otherwise.

Data set [2] deals with NF-kB p65 homodimer, murine (mouse, UniProt Q04207 19-306). Nature of the data set: EMSA. In general terms: Mobility shift assays separate free from complexed probe on a gel.
In data set [3] the target is NF-kB p65 homodimer, human (human, UniProt Q04206 19-306). The data set is described as follows: EMSA.
The target of data set [4] is T2, NF-κB p65 (recombinant p65) (not stated (human or murine protein purified)), Q04207.
T2 chain: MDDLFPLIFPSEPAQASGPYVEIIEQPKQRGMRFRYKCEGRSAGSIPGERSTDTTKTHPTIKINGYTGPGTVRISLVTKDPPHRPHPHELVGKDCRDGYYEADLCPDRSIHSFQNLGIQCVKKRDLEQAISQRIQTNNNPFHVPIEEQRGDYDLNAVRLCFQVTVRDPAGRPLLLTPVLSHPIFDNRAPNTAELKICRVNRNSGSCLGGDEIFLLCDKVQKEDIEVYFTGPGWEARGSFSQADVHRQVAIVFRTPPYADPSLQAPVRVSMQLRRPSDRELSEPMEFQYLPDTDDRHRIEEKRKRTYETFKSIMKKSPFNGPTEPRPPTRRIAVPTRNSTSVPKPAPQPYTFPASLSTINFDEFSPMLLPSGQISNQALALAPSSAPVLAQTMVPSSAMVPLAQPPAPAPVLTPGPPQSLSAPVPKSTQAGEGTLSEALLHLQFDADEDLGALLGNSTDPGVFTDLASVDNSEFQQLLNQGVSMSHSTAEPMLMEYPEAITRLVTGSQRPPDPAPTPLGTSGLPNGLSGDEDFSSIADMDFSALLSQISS
Nature of the data set: cross-linking. The settings on record: remark: other sources report otherwise.

Several values for one entry are separate records, joined by “and”; a condition that tells them apart may be missing. Equal values may be shown once.

Chain of NF-kB p65 homodimer, human (Q04206 19-306): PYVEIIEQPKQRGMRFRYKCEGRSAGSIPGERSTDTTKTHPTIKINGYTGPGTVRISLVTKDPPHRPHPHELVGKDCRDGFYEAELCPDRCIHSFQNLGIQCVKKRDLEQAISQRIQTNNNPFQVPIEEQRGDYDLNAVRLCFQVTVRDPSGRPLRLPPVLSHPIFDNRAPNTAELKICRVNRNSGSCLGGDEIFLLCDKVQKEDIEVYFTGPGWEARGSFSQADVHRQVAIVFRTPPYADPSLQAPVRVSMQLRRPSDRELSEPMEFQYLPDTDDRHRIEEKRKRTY

B1: NF-κB p50 (recombinant human p50), P19838 1-433 (natural protein)
chain: MAEDDPYLGRPEQMFHLDPSLTHTIFNPEVFQPQMALPTDGPYLQILEQPKQRGFRFRYVCEGPSHGGLPGASSEKNKKSYPQVKICNYVGPAKVIVQLVTNGKNIHLHAHSLVGKHCEDGICTVTAGPKDMVVGFANLGILHVTKKKVFETLEARMTEACIRGYNPGLLVHPDLAYLQAEGGGDRQLGDREKELIRQAALQQTKEMDLSVVRLMFTAFLPDSTGSFTRRLEPVVSDAIYDSKAPNASNLKIVRMDRTAGCVTGGEEIYLLCDKVQKDDIQIRFYEEEENGGVWEGFGDFSPTDVHRQFAIVFKTPKYKDINITKPASVFVQLRRKSDLETSEPKPFLYYPEIKDKEEVQRKRQKLMPNFSDSFGGGSGAGAGGGGMFGSGGGGGGTGSTGPGYSFPHYGFPTYGGITFHPGTTKSNAGMKHG
By stoichiometry N is commonly meant a count of units in the complex or per binding partner. For B1, the stoichiometry N in data set [1] was 2 and 4.

B2: R1 anti-p65 RNA aptamer (structured_RNA)
RNA: GAAGCUUACAAGAAGGACAGCACGAAUAAAACCUGCGUAAAUCCGCCCCAUUUGUGUAAGGGUAGUGGGUCGAAUUCCGCUCA
What is called Kd is the equilibrium constant for the complex coming apart. Low values mean a tighter complex, high ones a looser complex. On to B2, for which the Kd in data set [2] came out at 38 ± 20 nM. In addition, in data set [3], the binding result is reported as “binds”.

B3: NF-κB p65 (recombinant p65), Q04207 1-549 (natural protein)
chain: MDDLFPLIFPSEPAQASGPYVEIIEQPKQRGMRFRYKCEGRSAGSIPGERSTDTTKTHPTIKINGYTGPGTVRISLVTKDPPHRPHPHELVGKDCRDGYYEADLCPDRSIHSFQNLGIQCVKKRDLEQAISQRIQTNNNPFHVPIEEQRGDYDLNAVRLCFQVTVRDPAGRPLLLTPVLSHPIFDNRAPNTAELKICRVNRNSGSCLGGDEIFLLCDKVQKEDIEVYFTGPGWEARGSFSQADVHRQVAIVFRTPPYADPSLQAPVRVSMQLRRPSDRELSEPMEFQYLPDTDDRHRIEEKRKRTYETFKSIMKKSPFNGPTEPRPPTRRIAVPTRNSTSVPKPAPQPYTFPASLSTINFDEFSPMLLPSGQISNQALALAPSSAPVLAQTMVPSSAMVPLAQPPAPAPVLTPGPPQSLSAPVPKSTQAGEGTLSEALLHLQFDADEDLGALLGNSTDPGVFTDLASVDNSEFQQLLNQGVSMSHSTAEPMLMEYPEAITRLVTGSQRPPDPAPTPLGTSGLPNGLSGDEDFSSIADMDFSALLSQISS
For the molecule B3, the stoichiometry N in data set [4] worked out at 2.
